US20080160574A1 (KOREA ADVANCED INSTITUTE OF SCIENCE AND TECHNOLOGY KAIST, published 2008)

B1: GCN4/CC-Ang1/FD (coiled-coil domain of GCN4 - fibrinogen domain of Ang1) (ligand)
chain: DYKDDDDKGILMKQLEDKVEELLSKNYHLENEVARLKKLVGEGSLVNLCTKEGVLLKGGKREEEKPFRDCADVYQAGFNKSGIYTIYINNMPEPKKVFCNMDVNGGGWTVIQHREDGSLDFQRGWKEYKMGFGNPSGEYWLGNEFIFAIYSQRQYMLRIELMDWEGNRAYSQYDRFHIGNEKQNYRLYLKGHTGYAGKQSSLILHGADFSTKDADNDNCMCKCALMLTGGWWFDACGPSNLNGMFYTAGQNHGKLNGIKWHYFKGPSYSLRSTTMMIRPLDF
notes: The end, 298, is worked out from bases 1-897 including the stop codon; ~80 kDa under non-reducing conditions; also called GCN4-Ang1/FD; G/CC-A1/FD
B2: CMP/CC-Ang1/FD (coiled-coil domain of CMP - fibrinogen domain of Ang1) (ligand)
chain: YKDDDDKGILDEDPCECKSIVKFQTKVEELINTLQQKLEAVAKRIEALENKIIGSLVNLCTKEGVLLKGGKREEEKPFRDCADVYQAGFNKSGIYTIYINNMPEPKKVFCNMDVNGGGWTVIQHREDGSLDFQRGWKEYKMGFGNPSGEYWLGNEFIFAIYSQRQYMLRIELMDWEGNRAYSQYDRFHIGNEKQNYRLYLKGHTGTAGKQSSLILHGADFSTKDADNDNCMCKCALMLTGGWWFDACGPSNLNGMFYTAGQNHGKLNGIKWHYFKGPSYSLRSTTMMIRPLDF
notes: The end, 310, is worked out from bases 1-933 including the stop codon; ~140 kDa and ~180 kDa were observed under non-reducing conditions; also called CMP-Ang1/FD; C/CC-A1/FD
B3: native Ang1 (recombinant FLAG-tagged human angiopoietin-1 with C-terminal Myc and His tags) (ligand)
chain: DYKDDDDKLRYNRIQHGQCAYTFILPEHDGNCRESTTDQYNTNALQRDAPHVEPDFSSQKLQHLEHVMENYTQWLQKLENYIVENMKSEMAQIQQNAVQNHTATMLEIGTSLLSQTAEQTRKLTDVETQVLNQTSRLEIQLLENSLSTYKLEKQLLQQTNEILKIHEKNSLLEHKILEMEGKHKEELDTLKEEKENLQGLVTRQTYIIQELEKQLNRATTNNSVLQKQQLELMDTVHNLVNLCTKEGVLLKGGKREEEKPFRDCADVYQAGFNKSGIYTIYINNMPEPKKVFCNMDVNGGGWTVIQHREDGSLDFQRGWKEYKMGFGNPSGEYWLGNEFIFAITSQRQYMLRIELMDWEGNRAYSQYDRFHIGNEKQNYRLYLKGHTGTAGKQSSLILHGADFSTKDADNDNCMCKCALMLTGGWWFDACGPSNLNGMFYTAGQNHGKLNGIKWHYFKGPSYSLRSTTMMIRPLDFDIQHSGGRSSLEGPRFEQKLISEEDLNMHTGHHHHHH
notes: Multimer of variable sizes under non-reducing conditions; Produced in COS-7 cells; also called nAng1
B4: COMP/CC-Ang1/FD (coiled-coil domain of COMP - fibrinogen domain of Ang1) (ligand)
chain: DYKDDDDKGILDLAPQMLRELQETNAALQDVRELLRQQVKEITFLKNTVMECDACGGSLVNLCTKEGVLLKGGKREEEKPFRDCADVYQAGFNKSGIYTIYINNMPEPKKVFCNMDVNGGGWTVIQHREDGSLDFQRGWKEYKMGFGNPSGEYWLGNEFIFAIYSQRQYMLRIELMDWEGNRAYSQYDRFHIGNEKQNYRLYLKGHTGTAGKQSSLILHGADFSTKDADNDNCMCKCALMLTGGWWFDACGPSNLNGMFYTAGQNHGKLNGIKWHYFKGPSYSLRSTTMMIRPLDF
notes: The end, 312, is worked out from the stated lengths: 16 signal + 8 FLAG + 3 + 45 COMP + 2 + 238 Ang1 Leu261-498; ~180 kDa and ~250 kDa were observed under non-reducing conditions; also called COMP-Ang1/FD; CO/CC-A1/FD
B5: Ang1/FD (truncated Ang1 that contains only the fibrinogen-like domain, amino acids 284-498) (ligand)
chain: RDCADVYQAGFNKSGIYTIYINNMPEPKKVFCNMDVNGGGWTVIQHREDGSLDFQRGWKEYKMGFGNPSGEYWLGNEFIFAIYSQRQYMLRIELMWEGNRAYSQYDRFHIGNEKQNYRLYLKGHTGYAGKQSSLILHGADFSTKDADNDNCMCKCALMLTGGWWFDACGPSNLNGMFYTAGQNHGKLNGIKWHYFKGPSYSLRSTTMMIRPLDF
notes: The range 284-498 is counted on Ang1, not on the entry; also called monomeric Ang1/FD; recombinant Ang1/FD

target: T1, soluble Tie2-Fc (fusion of the ectodomain of Tie-2 receptor and the Fc domain of human IgG1, R&D Inc) (human, UniProt Q02763 23-748); test: protein-A pull-down with sTie2-Fc, anti-FLAG Western blot
T1 construct: Bought (R&D Inc) for the Biacore assay; human Tie2 would be UniProt Q02763; also called sTie2-Fc; T2; not shown: Fc domain of human IgG1 and any linker
Protocol: Twenty nanograms of each protein was incubated with 100 ng of sTie1-Fc or sTie2-Fc for […], and then, protein-A conjugated agarose beads were added. The precipitate was separated by 10% SDS-PAGE, and electro-blotted on to nitrocellulose membranes. The nitrocellulose membranes were Western blotted with anti-FLAG M1 antibody, washed, and incubated with horseradish peroxidase-conjugated secondary antibody. Signals were visualized by chemiluminescent detection according to the manufacturer's protocol (Amersham Pharmacia Biotech) and chemiluminescence scanner (LAS-1000, Fuji Film, Tokyo). CB, control buffer; PC, positive control of same amount of each recombinant protein without binding.
Twenty nanograms of each recombinant chimeric-Ang1 protein and 100 ng of soluble Tie1-Fc or soluble Tie2-Fc were incubated in 500 μl Tris-buffer solution (50 mM Tris, 100 mM NaCl, pH 7.4) containing 0.02% TritonX-100 at 4° C. for 2 hr. Then, 20 μl of protein-A agarose beads (Oncogene) was added and incubated for another 1 hr at 4° C. The protein-A conjugated samples were washed twice with 1 ml of Tris-buffer containing 0.02% TritonX-100. The samples were eluted with sample buffer, and heat-denatured. The samples were further separated by 10% SDS-PAGE, and electro-blotted on to nitrocellulose membranes, and Western blotted with anti-FLAG M1 antibody to detect the bound recombinant chimeric-Ang1, and further washed and incubated with horseradish peroxidase-conjugated secondary antibody. Signal was visualized by chemiluminescent detection according to the manufacturer's protocol (Amersham Pharmacia Biotech) using chemiluminescence scanner (LAS-1000, Fuji Film, Tokyo). Approximately 75%, 20%, 95% or 100% of native Ang1, GCN4-Ang1/FD, CMP-Ang1/FD, and COMP-Ang1/FD, respectively, bound to sTie2-Fc. In contrast, none of them bound to sTie1-Fc.

T1 sequence (Q02763 23-748 limits assumed): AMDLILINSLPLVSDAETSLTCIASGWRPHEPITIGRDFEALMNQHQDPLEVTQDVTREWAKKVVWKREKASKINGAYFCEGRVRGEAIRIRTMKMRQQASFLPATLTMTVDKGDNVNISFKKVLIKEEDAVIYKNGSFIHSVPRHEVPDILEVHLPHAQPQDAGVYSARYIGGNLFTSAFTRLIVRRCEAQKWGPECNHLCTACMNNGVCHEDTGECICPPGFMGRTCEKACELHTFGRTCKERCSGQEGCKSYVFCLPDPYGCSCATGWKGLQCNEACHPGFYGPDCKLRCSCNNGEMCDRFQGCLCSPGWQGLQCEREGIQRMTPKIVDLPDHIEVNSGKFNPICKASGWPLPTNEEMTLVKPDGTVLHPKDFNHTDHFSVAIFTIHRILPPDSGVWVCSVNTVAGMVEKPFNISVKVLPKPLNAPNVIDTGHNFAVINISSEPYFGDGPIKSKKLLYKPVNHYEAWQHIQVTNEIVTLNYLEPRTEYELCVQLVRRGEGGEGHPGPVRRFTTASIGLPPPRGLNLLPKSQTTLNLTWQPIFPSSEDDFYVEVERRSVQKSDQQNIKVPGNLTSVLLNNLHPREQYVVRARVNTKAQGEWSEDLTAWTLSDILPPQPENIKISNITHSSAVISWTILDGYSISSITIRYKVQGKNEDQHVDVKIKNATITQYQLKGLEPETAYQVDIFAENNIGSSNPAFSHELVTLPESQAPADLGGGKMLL

| percent of input protein bound [%] | Binder |
| --- | --- |
| ~20 | B1 |
| ~95 | B2 |
| ~75 | B3 |
| ~100 | B4 |

target: T1, soluble Tie2-Fc (fusion of the …); test: Biacore, Tie2-Fc immobilized on CM5 chip
Protocol: (§1) FIGS. 10A-10D show in vitro binding assay between recombinant native Ang1, GCN4-Ang1/FD, CMP-Ang1/FD, or COMP-Ang1/FD and immobilized soluble Tie2-Fc using Biacore assay. Each recombinant protein was passed over a Biacore sensor chip that had extracellular domain of Tie2-Fc and Fc protein covalently coupled to it, followed by dissembling in absence of the recombinant proteins. Concentrations of the recombinant proteins are shown in each panel. Specificity of binding was assessed by subtracting Fc protein binding value from Tie2-Fc binding value during the measurement. Binding of the sensor chip is provided in resonance units (RUs).
(§2) Alternatively, to determine whether the COS-7 cell-derived recombinant proteins of native Ang1, GCN4/CC-Ang1/FD, CMP/CC-Ang1/FD and COMP/CC-Ang1/FD could bind to Tie-2 receptor, standard Biacore analysis was performed by BIA2000 (BIAcore, Inc.). Briefly, 600 ng of Tie-2-Fc receptor protein (R&D Inc), which is a fusion protein composed of the ectodomain of Tie-2 receptor and Fc domain of human IgG1, was immobilized on a Biacore chip (Sensor Chip CM5). As a control, 600 ng of Fc protein, which had only the Fc domain of human IgG1, was also immobilized on the same chip. The binding affinity was obtained by subtracting the response value using Fc protein from the values obtained using the Tie-2-Fc protein.

| concentration at which binding was saturated [nM] | Binder |
| --- | --- |
| ~30 | B1 |
| ~30 | B2 |
| > 125 | B3 |
| > 125 | B4 |

target: Tie2 receptor on human umbilical vein endothelial cells (HUVECs) (human, UniProt Q02763 23-1124); test: cell-based or functional assay
Sequence (Q02763 23-1124): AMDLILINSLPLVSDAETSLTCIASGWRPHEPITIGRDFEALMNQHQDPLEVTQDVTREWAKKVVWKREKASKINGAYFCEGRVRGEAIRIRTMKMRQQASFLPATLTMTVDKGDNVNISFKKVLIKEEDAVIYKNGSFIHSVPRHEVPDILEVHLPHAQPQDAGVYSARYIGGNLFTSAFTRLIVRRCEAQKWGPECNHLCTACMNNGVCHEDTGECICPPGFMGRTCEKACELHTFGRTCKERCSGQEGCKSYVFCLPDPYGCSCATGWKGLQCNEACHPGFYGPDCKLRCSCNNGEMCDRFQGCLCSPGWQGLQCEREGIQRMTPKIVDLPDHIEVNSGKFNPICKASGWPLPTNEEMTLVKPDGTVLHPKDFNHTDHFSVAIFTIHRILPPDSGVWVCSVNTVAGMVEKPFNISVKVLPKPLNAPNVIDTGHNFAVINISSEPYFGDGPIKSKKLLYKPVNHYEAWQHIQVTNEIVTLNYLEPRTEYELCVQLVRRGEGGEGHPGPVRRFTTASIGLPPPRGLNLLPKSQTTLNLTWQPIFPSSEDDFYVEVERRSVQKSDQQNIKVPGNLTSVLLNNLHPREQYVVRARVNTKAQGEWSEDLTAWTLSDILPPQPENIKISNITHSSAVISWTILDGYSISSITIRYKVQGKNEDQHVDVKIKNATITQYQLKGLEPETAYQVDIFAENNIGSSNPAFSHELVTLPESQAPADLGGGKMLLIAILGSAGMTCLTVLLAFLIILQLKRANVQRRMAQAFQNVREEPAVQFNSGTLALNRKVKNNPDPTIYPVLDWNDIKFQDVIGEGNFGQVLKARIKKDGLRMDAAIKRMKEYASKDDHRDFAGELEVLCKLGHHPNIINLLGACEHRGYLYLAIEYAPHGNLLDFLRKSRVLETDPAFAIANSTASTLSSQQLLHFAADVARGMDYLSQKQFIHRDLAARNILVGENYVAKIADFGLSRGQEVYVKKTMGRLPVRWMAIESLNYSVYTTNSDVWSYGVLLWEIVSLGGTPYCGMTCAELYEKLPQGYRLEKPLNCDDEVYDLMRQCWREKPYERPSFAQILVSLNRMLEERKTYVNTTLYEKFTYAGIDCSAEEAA

| Tie2 phosphorylation (ratio of phospho-Tie2 to Tie2, control buffer = 1) [fold] | Binder |
| --- | --- |
| ~4 | B2 |
| ~3.6 | B3 |
| ~8.8 | B4 |

target: T1, soluble Tie2-Fc (fusion of the …); test: Biacore, Tie2-Fc immobilized on CM5 chip, Fc reference subtracted
Protocol: as §1, §2

| Kd [nM] | Binder |
| --- | --- |
| 158 | B1 |
| 67 | B2 |
| 7.5 | B3 |
| 20.5 | B4 |

target: T1, soluble Tie2-Fc (fusion of the …); test: binding assay with soluble Tie2 (details not given)

| binding result | Binder |
| --- | --- |
| no binding | B5 |
